22 sequences from the supplement of paper PMC9170038 can be followed below.

The test system of the series is K4 kissing-loop RNA reporter. Put plainly: apparent KD of K4 kissing-loop reporter; higher = weaker reporter binding. The settings on record: Eterna round: R107. As to the method:
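RNA-MaP round R107: designed RNA switches with theophylline, tryptophan, arginine or FMN aptamers are transcribed on-chip within common flanks. They are titrated with a labelled K4 kissing-loop RNA reporter in RNA-MaP buffer (100 mM Tris pH 7.5, 80 mM KCl, 4 mM MgCl2), without ligand or with the indicated ligand. Median apparent KD per design.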

The mark [1] stands for this setting: input ligand: theophylline 20 uM.
Where [2] appears, read: input ligand: tryptophan 2.4 mM.
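Further: bound reporter read as fluorescence of individual clusters on recovered sequencing chips by microscopy, with normalized cluster intensities fitted with a binding model.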

On to “GGUGACAGCCAGGAGUGAUGUAUAGAAUAGCGAGGACCGGUACGGCCGCCACUCGUGAAGAGAAGGGAGUGAUGUUCCGUAAUGG [Kazoo C]”, for which the “apparent KD of K4 kissing-loop reporter” value by setting is: (input ligand: FMN 200 uM) 627 nM; (input ligand: arginine 13.2 mM) 185 nM; (input ligand: none) 170 nM; under setting [1], 386 nM; under setting [2], 140 nM.
For the sequence “GGUGCUGUCUGUGCCGCCUUCCUCGUUCCUCGAGGACCGGUACGGCCGCCACUCGAGUGAUGUUUGGGUAGCGAUCCCUGCUAGC [Bdazzled - #15 Exc. Tryptophan A]”, the “apparent KD of K4 kissing-loop reporter” value amounted to 1010 nM (input ligand: FMN 200 uM); 737 nM (input ligand: arginine 13.2 mM); 1180 nM (input ligand: none); 1030 nM under setting [1]; 917 nM under setting [2].
In the case of “GGUUAAUAGGAGGAUACCAGUACGAAUAAAGUACAUUAAUAGUAGAGUGAUGUUCUAAAGUACCCUUGGCAGCUUAGAGUUAGUU [#19 K4 Theophylline B Exclusion]”, the “apparent KD of K4 kissing-loop reporter” value was determined as 128 nM (input ligand: FMN 200 uM); 216 nM (input ligand: arginine 13.2 mM); 169 nM (input ligand: none); 257 nM under setting [1]; 102 nM under setting [2].
On to “GGUUUAUAGGAGGAUACCAGUACGGAUAAAGUACGUUAAUAGUAGAGUGAUGUUCUAAAGUACCCUUGGCAGCUUAGAGUGAGUU [ExTheophylB.L]”, for which the “apparent KD of K4 kissing-loop reporter” value was 105 nM (input ligand: FMN 200 uM); 157 nM (input ligand: arginine 13.2 mM); 122 nM (input ligand: none); 159 nM under setting [1]; 78.8 nM under setting [2].
In the same order, the values of “GUAAGACCGGGACUCCAGUGAUGUUGGAGGCAGGAUAUCCAGUCGAGGAGAAGGGCCAGGGAUAUCGAGCUGCUCGGUUUGUAGU [Argeis]” are 81.9 nM, 69.5 nM, 93.6 nM, 78.9 nM and 56.2 nM.
With “GUACCGCGUGCGGCCGCCACUACAUCAAUUACCUAAGCCUAGUGAUGUUGGGUUUUUGCUACAGGUAGGACCGGGCAGAUGUAUG [theeternabot_sameState_KL_Trp_B_38]”, the “apparent KD of K4 kissing-loop reporter” value reads like this: (input ligand: FMN 200 uM) 292 nM; (input ligand: arginine 13.2 mM) 225 nM; (input ligand: none) 307 nM; under setting [1], 263 nM; under setting [2], 270 nM.
In the same order, the values of “GUACCUUGGAAACAAGGACAGCUCACCGAAGGAGCGCGUGAAAACGCAGGUAGGUCGCGGUAGCGGAGUGAUGUUCCGCGAGGGC [Same State Arginine A GF 20]” are 114 nM, 99.5 nM, 100 nM, 112 nM and 106 nM.
Turning to “GUAGCACUCGGUAGUGAUGUUAUCGAGGACAAGGAUAUCAUCUCAAUGAGAAGGUGUCCUUGAUAACAGCUACGGGAAUAUCCCA [Omei KL FMN A Exc D v4]”, the “apparent KD of K4 kissing-loop reporter” value was found to be 386 nM (input ligand: FMN 200 uM); 117 nM (input ligand: arginine 13.2 mM); 134 nM (input ligand: none); 120 nM under setting [1]; 127 nM under setting [2].
In the same order, the values of “GUAGCCCUAUGUGAUACCAGACGGUAUAAAAUCCUGGCGGCCAGUGAUGUUGGCCAUCGCGUCCCUUGGCAGCACCAAGGCUGUA [theeternabot_sameState_KL_Theo_B_18]” are 122 nM, 143 nM, 142 nM, 118 nM and 114 nM.
In the same order, the values of “GUAGGAUGAGGAGGAGGAUGAAUUACUGAAGGAGCGCAUAUUAAUGCAGGUAGGUCGCGGUAAAGAAGUAUAGUGAUGUUAUAUA [SSArgA.H]” are 238 nM, 538 nM, 589 nM, 399 nM and 234 nM.
With “GUAGGCUACCGAGGAUAUAGUCCAACGGAGUGAUGUUCCGUCUUUCUUCAUCAUUAACGUUGUGAUCUAGAAGGCGGUAGCCUAC”, the “apparent KD of K4 kissing-loop reporter” value (input ligand: FMN 200 uM) is 120 nM; the “apparent KD of K4 kissing-loop reporter” value (input ligand: arginine 13.2 mM) is 440 nM; the “apparent KD of K4 kissing-loop reporter” value (input ligand: none) amounted to 723 nM; the “apparent KD of K4 kissing-loop reporter” value under setting [1] was determined as 529 nM; the “apparent KD of K4 kissing-loop reporter” value under setting [2] worked out at 687 nM.
In the same order, the values of “GUAUCGCUAGGAGGAUAUUCCGUUUUUCAUAGCAAUGGCUAUGCGGAGUGAUGUUCCGAUUUACCGGAAGAAGGCCUAGUGAUAC [FMN B 24]” are 108 nM, 139 nM, 128 nM, 148 nM and 114 nM.
As to “GUAUCGCUAGGAGGAUAUUUCAAAUAAUAAAUAAAUGGUUAUACGGAGUGAUGUUCCGAUUUACGGAAAGAAGGCCUAGUGAUAC [FMN B 3]”, the “apparent KD of K4 kissing-loop reporter” value (input ligand: FMN 200 uM) is 118 nM; the “apparent KD of K4 kissing-loop reporter” value (input ligand: arginine 13.2 mM) worked out at 144 nM; the “apparent KD of K4 kissing-loop reporter” value (input ligand: none) worked out at 155 nM; the “apparent KD of K4 kissing-loop reporter” value under setting [1] is 153 nM; the “apparent KD of K4 kissing-loop reporter” value under setting [2] was 147 nM.
In the same order, the values of “GUAUCGCUAGGAGGAUAUUUCAAAUCGCCAAUAAAUGGUGAUACGGAGUGAUGUUCCGAUUUACGGAAAGAAGGCCUAGUGAUAC [FMN B 6]” are 135 nM, 269 nM, 322 nM, 288 nM and 268 nM.
In the same order, the values of “GUAUCGCUAGGAGGAUAUUUCAAUUUGACUCUUUGAGUUAAUACGGAGUGAUGUUCCGAUUUACGGAAAGAAGGCCUAGUGAUAC [FMN B 13]” are 123 nM, 203 nM, 238 nM, 219 nM and 210 nM.
Turning to “GUAUCGCUAGGAGGAUAUUUCGUUUUUCAUAGCAAUGGCUAUGCGGAGUGAUGUUCCGAUUUACCGAAAGAAGGCCUAGUGAUAC [FMN B 25]”, the “apparent KD of K4 kissing-loop reporter” value was 95.2 nM (input ligand: FMN 200 uM); 87.8 nM (input ligand: arginine 13.2 mM); 99.2 nM (input ligand: none); 103 nM under setting [1]; 98.8 nM under setting [2].
Consider “GUGAAGGAGCUGCAGUGAUGUUGCAGAGACUAGGAUAUCAGGAAACUGAGAAGGAGUCAACUCCUUCACCUAGACACUGCAGAAA [[F]''-[K1]-[K2]-[F1]-[F2]-[F2]'-[F1]'-[K]'_Design1]”, for which the “apparent KD of K4 kissing-loop reporter” value reads like this: (input ligand: FMN 200 uM) 110 nM; (input ligand: arginine 13.2 mM) 108 nM; (input ligand: none) 128 nM; under setting [1], 170 nM; under setting [2], 143 nM.
In the same order, the values of “GUGAGGAGUGGUGUUGAUUAGGGAGCGGAAGGAGCGCCGAGGAAGGCAGGUAGGUCGCCGGAUUAUAGUGAUGUUAUGAAGAGGG [ExArg.K]” are 482 nM, 523 nM, 551 nM, 886 nM and 338 nM.
Regarding “GUGCGGCUAGUGAUGUUGGUUGCGUGGGAAGGAGCGCAGUAAAAUGCAGGUAGGUCGCCCGCAUCUCUGAUAAAAGAUUAAUUCA [KL-SSArg-A9]”, the “apparent KD of K4 kissing-loop reporter” value was 276 nM (input ligand: FMN 200 uM); 196 nM (input ligand: arginine 13.2 mM); 228 nM (input ligand: none); 238 nM under setting [1]; 228 nM under setting [2].
With “GUGGGCAUAGCAGGAUAUCCAUAUUAACAGGAGUCCUCGCCAGUGAUGUUGGAAAGGUACCGGAGUGGAGAAGGGCUCCUACGUA [Anbiratien]”, the “apparent KD of K4 kissing-loop reporter” value (input ligand: FMN 200 uM) was determined as 594 nM; the “apparent KD of K4 kissing-loop reporter” value (input ligand: arginine 13.2 mM) amounted to 782 nM; the “apparent KD of K4 kissing-loop reporter” value (input ligand: none) worked out at 813 nM; the “apparent KD of K4 kissing-loop reporter” value under setting [1] turned out to be 757 nM; the “apparent KD of K4 kissing-loop reporter” value under setting [2] came to 515 nM.
In the same order, the values of “GUGGUACAGGCGGCCGCCACUAGUGAUGUUAGUGAUAGAAGAUAUAGUAUAUAUCGGCAUUUAGUUAGGACCGGGCCUGGUGGUG [wwwrcmullin]” are 424 nM, 316 nM, 360 nM, 367 nM and 337 nM.
On to “GUUACGCAUGGAAGGAGCGCACUCCGGUUGAUCAACACAGUGAUGUUGUGGUUCAUUCGAAUGCAGGUAGGUCGCCAUGUGUAAC [Ex Arginine B K4 16]”, for which the “apparent KD of K4 kissing-loop reporter” value (input ligand: FMN 200 uM) was 877 nM; the “apparent KD of K4 kissing-loop reporter” value (input ligand: arginine 13.2 mM) came out at 724 nM; the “apparent KD of K4 kissing-loop reporter” value (input ligand: none) is 1100 nM; the “apparent KD of K4 kissing-loop reporter” value under setting [1] stood at 858 nM; the “apparent KD of K4 kissing-loop reporter” value under setting [2] is 825 nM.
